Assay results as given in patent US7482004B2, “Inhibitors of placental growth factor for the treatment of pathological angiogenesis, pathological arteriogenesis, inflammation, tumor formation and/or vascular leakage” (Vlaams Interuniversitair Instituut voor Biotechnologie vzw, priority 2000, dated 2009).
Marks after values point to notes of the source that are not given here.

What was measured:
PIGF^−/− mice = assay: Matrigel assay, PIGF-/- mice; assay type: in vivo, mouse; details: subcutaneous matrigel with 100 ng/ml factor, seven days, n=15
From the text: (§1) Since VEGF plays a role in the above-mentioned phenotypes of angiogenesis, arteriogenesis and permeability, we investigated whether PIGF determined the responsiveness to VEGF. Subcutaneous implantation of matrigel (A. Passaniti et al., 1992, Lab. Invest. 67, 519-528) supplemented with VEGF165 (VEGF165) induced a strong angiogenic response in PIGF^+/+ but not in PIGF^−/− mice (hemoglobin content: 0.28±0.02 g/dl in PIGF^+/+ mice versus 0.02±0.02 g/dl in PIGF^−/− mice; n=15; p<0.05).
(§2) In contrast, basic fibroblast growth factor (bFGF) induced a similar angiogenic response in both genotypes (hemoglobin content: 0.28±0.02 g/dl in PIGF^+/+ mice versus 0.25±0.02 g/dl in PIGF^−/− mice; n=15; p=NS). These observations were confirmed by histological analysis and immunostaining for endothelial factor VIII-related antigen.
(§3) Matrigel assay: Ingrowth of capillaries in matrigel was performed as described (A. Passaniti et al., 1992, Lab. Invest. 67, 519-528). […] After seven days, the matrigel pellet with the neovessels was dissected for analysis of neovascularization: one part was homogenized to determine the hemoglobin content determined using Drabkin's reagent (Sigma, St. Quentin Fallavier, France), whereas the other part was fixed in 1% paraformaldehyde for histological analysis.

[1] = system: PLGF^+/+ endothelial cells; assay: Endothelial proliferation, PLGF+/+ cells; assay type: cell-based, mouse
From the text: (§4) Proliferation and survival of endothelial cells in response to VEGF were studied. […] PIGF was also found to modulate the mitogenic response to VEGF of smooth muscle cells, known to express VEGFR-1 and VEGFR-2 (C. L. Grosskreutz et al., 1999, Microvasc. Res. 58, 128-136). […] Thus, PIGF affected endothelial and smooth muscle cells only when they were stimulated with VEGF.
(§5) The data represent the mean±SD of nine to twelve experiments. *: p<0.05 versus control (vehicle). None of the antibodies affected baseline endothelial proliferation in the absence of VEGF (not shown). Ab: polyclonal antiserum; MoAb: monoclonal antibodies; bFGF: basic fibroblast growth factor.
(§6) Endothelial and smooth muscle cell culture: In order to obtain mouse capillary endothelial cells, anesthetized mice were injected s.c. with 500 μl of ice-cold matrigel containing bFGF (100 ng/ml) and heparin (100 μg/ml). After seven days, the matrigel pellet was dissected and enzymatically dispersed using 0.1% type II collagenase (Sigma, St. Louis, Mo.). Mouse endothelial cells were routinely cultured in T75 flasks coated with 0.1% gelatin in M131 medium supplemented with 5% MVGS (Gibco-BRL). Smooth muscle cells from mouse aorta were harvested and cultured as described (J. M. Herbert et al., 1997, FEBS Lett. 413, 401-404). […]

PIGF^+/+ mice = assay: Matrigel assay, PIGF+/+ mice; assay type: in vivo, mouse; details: subcutaneous matrigel with 100 ng/ml factor, seven days, n=15
From the text: as §1, §2, §3

[2] = system: PIGF^+/+ and PIGF^−/− smooth muscle cells; assay: Smooth muscle cell proliferation; assay type: cell-based, mouse
From the text: as §4
(§7) Endothelial and smooth muscle cell culture: In order to obtain mouse capillary endothelial cells, anesthetized mice were injected s.c. with 500 μl of ice-cold matrigel containing bFGF (100 ng/ml) and heparin (100 μg/ml). After seven days, the matrigel pellet was dissected and enzymatically dispersed using 0.1% type II collagenase (Sigma, St. Louis, Mo.). Mouse endothelial cells were routinely cultured in T75 flasks coated with 0.1% gelatin in M131 medium supplemented with 5% MVGS (Gibco-BRL). Smooth muscle cells from mouse aorta were harvested and cultured as described (J. M. Herbert et al., 1997, FEBS Lett. 413, 401-404). Before stimulation, cells were starved in medium with 0.5% serum for 24 hours, after which they were stimulated with human VEGF165 and/or murine PIGF, or bFGF (all from R&D, Abingdon, UK) for 24 hours before analysis of the total cell number (proliferation) or the number of cells migrated after scrape-wounding (migration).

[3] = system: PIGF^+/+ and PIGF^−/− smooth muscle cells; assay: Smooth muscle cell migration; assay type: cell-based, mouse
Experimental: (§8) The reduced response of PIGF^−/− endothelial cells to VEGF was confirmed using cultured primary PIGF^−/− endothelial cells. […] Thus, PIGF determines and synergistically amplifies the response to VEGF.
as §7

[4] = system: PLGF^−/− endothelial cells; assay: Endothelial proliferation, PLGF-/- cells; assay type: cell-based, mouse
From the text: as §4, §5, §6

[5] = system: PIGF^+/+ and PIGF^−/− endothelial cells; assay: Endothelial cell migration (chemotaxis); assay type: cell-based, mouse; details: for chemotaxis of endothelial cells: 100 ng/ml (VEGF165, PIGF), both genotypes
Experimental: as §8, §7

[6] = system: PIGF^+/+ and PIGF^−/− endothelial cells; assay: Endothelial cell survival (apoptosis by serum deprivation or TNF-α); assay type: cell-based, mouse
From the text: as §4, §7

PIGF^−/− fibroblasts = assay: VEGF production by PIGF-/- fibroblasts; assay type: cell-based; details: 100 ng/ml for 48 hours
Experimental: (§9) Expression of VEGF by PIGF^−/− fibroblasts was increased by PIGF (VEGF production per 10^6 cells/ml/24 hours: 180±10 pg after treatment with vehicle versus 440±10 pg after treatment with 100 ng/ml PIGF for 48 hours; p<0.05 versus vehicle). Similar results were obtained for PIGF^+/+ fibroblasts (VEGF production per 10^6 cells/ml/24 hours: 200±8 pg after treatment with vehicle versus 430±5 pg after treatment with 100 ng/ml PIGF for 48 hours; p<0.05 versus vehicle).

PIGF^+/+ fibroblasts = assay: VEGF production by PIGF+/+ fibroblasts; assay type: cell-based; details: 100 ng/ml for 48 hours
Experimental: as §9

[7] = PIGF added to VEGF165, PIGF^−/− endothelial cells

| Molecule | hemoglobin content (angiogenic response in matrigel) (PIGF^−/− mice) [g/dL] | Endothelial proliferation ([1]; 50 ng/ml) | hemoglobin content (angiogenic response in matrigel) (PIGF^+/+ mice) [g/dL] | smooth muscle cell proliferation [2] | migration of smooth muscle cells [3] | Endothelial proliferation ([4]; 50 ng/ml) | chemotaxis of endothelial cells [5] | Endothelial proliferation ([1]; 100 ng/ml of each factor) | proliferation and survival response to VEGF165 [6, 7] | mitogenic and anti-apoptotic activity ([6]; factor alone, endothelial cells of either genotype) | VEGF production per 10^6 cells/ml/24 hours (PIGF^−/− fibroblasts) [pg] | Endothelial proliferation ([4]; 100 ng/ml of each factor) | VEGF production per 10^6 cells/ml/24 hours (PIGF^+/+ fibroblasts) [pg] | migration of endothelial cells in response to VEGF165 [5, 7] |
| --- | --- | --- | --- | --- | --- | --- | --- | --- | --- | --- | --- | --- | --- | --- |
| bFGF: basic fibroblast growth factor | 0.25 ± 0.02 | 35 ± 2* | 0.28 ± 0.02 | comparable responses | stimulated smooth muscle cells of both genotypes | 35 ± 5* | both genotypes responded comparably |  |  |  |  |  |  |  |
| PLGF: murine Placental Growth Factor (R&D) (protein, UniProt P49764 19-158, looked up) Placenta growth factor: VHSQGALSAGNNSTEVEVVPFNEVWGRSYCRPMEKLVYILDEYPDEVSHIFSPSCVLLSRCSGCCGDEGLHCVPIKTANITMQILKIPPNRDPHFYVEMTFSQDVLCECRPILETTKAERRKTKGKRKRSRNSQTEEPHP |  |  |  | ineffective by itself, restored the responsiveness of PIGF^−/− cells to VEGF | rescued the impaired smooth muscle cell response to VEGF |  | not chemotactic for endothelial cells of either genotype | 11 ± 1 | rescued the impaired proliferation and survival response | not mitogenic nor anti-apoptotic | 440±10 | 11 ± 1 | 430±5 | completely restored the impaired migration |
